Our source for the Kd values is US20260308269 (published 2026).

First the molecules themselves.
B1: 42.2.3-1H (protein)
chain: APELLGGPSVFLFPPKPKDTLMISRTPEVTCVVVDVSHEDPEVKFNWYVDGVEVHNAKTKPREEQYNSTYRVVSVLTVLHQDWLNGKEYKCKVSNKALPAPIEKTISKAKGQPREPQVYTLPPSRDELTKNQVSLTCLVKGFYPSDIAVEWFYGNAKETNYKTTPPVLDSDGSFFLYSKLTVDKSRWQQGNLFACEVMHEALHNHYTYKLLSLSPGK
B2: 42.8.15 (protein)
chain: B1 chain with Y153S, N155A, A156Q, T159S
B3: 6.5.11.5.42.2 (TV42.2) (protein)
chain: B1 chain with Y153S, G154D, N155G, A156S
B4: 42.8.17 (protein)
chain: B1 chain with Y153S, N155A, A156Q, E158L
B5: 42.8.196 (protein)
chain: B1 chain with G154E, N155A, A156Q, E158L, T159N
B6: 42.8.80 (protein)
chain: B1 chain with Y153S, G154E, N155G, A156S
B7: 6.5.11.5.42.1 (protein)
chain: B1 chain with Y153S, N155G
B8: 42.2.19 (protein)
chain: B1 chain with G154D, N155D, A156S, E158L, Q189P, G190R, N191G, S212G, L213E
B9: TV35.d1.10 (protein)
chain: PCPAPEAAGGPSVFLFPPKPKDTLMISRTPEVTCVVVDVSHEDPEVKFNWYVDGVEVHNAKTKPREEQYNSTYRVVSVLTVLHQDWLNGKEYKCKVSNKALGAPIEKTISKAKGQPREPQVYTLPPSRDELTKNQVSLWCLVKGFYPSDIAVEWESYGTEWVNYKTTPPVLDSDGSFFLYSKLTVTKSEWQQGFVFSCSVMHEALHNHYTQKSLSLSPGK
B10: TV35.d1.9 (protein)
chain: B9 chain with V162T
B11: 42.8.143 (protein)
chain: B1 chain with N155D, A156S, E158L
B12: CH3C.35.23.2 (protein)
chain: B9 chain with A7L, A8L, G102P, V162A, S188E
B13: CH3C.35.23.4 (protein)
chain: B9 chain with A7L, A8L, G102P, V162S, T186S, S188E
B14: LLB2.10.8.14.3 (protein)
chain: APELLGGPSVFLFPPKPKDTLMISRTPEVTCVVVDVSHEDPEVKFNWYVDGVEVHNAKTKPREEQYNSTYRVVSVLTVLHQDWLNGKEYKCKVSNKALPAPIEKTISKAKGQPREPQVYTLPPSRDELTKNQVSLTCLVKGFYPSDIAVLWNSRFVLENNYKTTPPVLDSDGSFFLYSKLTVDKSRWQQGEIFACNVYHEALHNHRTFKNLRLSPGK

Substitutions are numbered along the chain they refer to.

One assay has as its target T1, human TfR apical domain (human).
T1 chain: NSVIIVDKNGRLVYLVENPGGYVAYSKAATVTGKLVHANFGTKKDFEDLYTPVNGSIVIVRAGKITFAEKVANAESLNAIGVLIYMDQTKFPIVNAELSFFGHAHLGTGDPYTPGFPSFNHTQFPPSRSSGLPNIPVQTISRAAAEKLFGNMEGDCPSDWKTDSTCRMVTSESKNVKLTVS
Description: SPR.
For the molecule B1, the Kd amounted to 220 nM.

Consider B2, for which the equilibrium dissociation constant (Kd) amounted to 5960 nM.

B3 gave a Kd of 650 nM.

Turning to B4, the dissociation constant Kd was 10400 nM.

In the case of B5, the Kd came to 924 nM.

The molecule B6 registered a Kd of 2380 nM.

B7 displayed a Kd of 840 nM.

As for B8, the Kd was found to be 80 nM.

The target in a further assay is T1, human TfR apical domain. In words: SPR. This is another data set of the same source.
In the case of B9, the dissociation constant (Kd) came to 2500 nM.

B10 displayed a dissociation constant Kd of 8400 nM.

Another assay deals with T1, human TfR apical domain. Description: SPR. This is another data set of the same source.
Take B3: the Kd worked out at 650 nM.

B11: binding was characterised by a dissociation constant (Kd) of 450 nM.

B12 returned a dissociation constant Kd of 100 nM.

B13 registered a Kd of 620 nM.

As to B9, the Kd was determined as 2500 nM.

The molecule B10 registered a dissociation constant Kd of 8000 nM.

The next assay has as its target T2, human CD98hc (human).
T2 chain: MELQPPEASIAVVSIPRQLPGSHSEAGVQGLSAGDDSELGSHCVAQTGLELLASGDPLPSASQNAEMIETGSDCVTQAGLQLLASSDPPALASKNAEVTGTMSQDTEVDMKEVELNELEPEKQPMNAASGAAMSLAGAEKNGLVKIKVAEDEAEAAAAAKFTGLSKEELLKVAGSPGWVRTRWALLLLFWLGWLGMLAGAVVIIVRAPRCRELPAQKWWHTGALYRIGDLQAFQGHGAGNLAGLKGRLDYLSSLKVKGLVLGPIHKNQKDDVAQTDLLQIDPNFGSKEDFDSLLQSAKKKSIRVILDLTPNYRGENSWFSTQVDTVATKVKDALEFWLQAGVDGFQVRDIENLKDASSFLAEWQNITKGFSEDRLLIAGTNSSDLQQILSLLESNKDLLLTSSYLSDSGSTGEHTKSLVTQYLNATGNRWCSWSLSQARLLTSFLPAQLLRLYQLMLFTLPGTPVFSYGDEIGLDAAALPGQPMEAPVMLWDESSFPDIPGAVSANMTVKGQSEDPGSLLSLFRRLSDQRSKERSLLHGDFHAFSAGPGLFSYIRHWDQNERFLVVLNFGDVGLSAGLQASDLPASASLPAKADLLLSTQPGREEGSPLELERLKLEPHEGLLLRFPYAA
In words: SPR.
For B14, the Kd turned out to be 20 nM.
